IntAct's records for PubMed 20890284

B1: TYRO protein tyrosine kinase-binding protein (Homo sapiens), O43914 (parent)
chain: MGGLEPCSRLLLLPLLLAVSGLRPVQAQAQSDCSCSTVSPGVLAGIVMGDLVLTVLIALAVYFLGRLVPRGRGAAEAATRKQRITETESPYQELQGQRSDVYSDLNTQRPYYK
B2: Hematopoietic cell signal transducer (Homo sapiens), Q9UBK5 (parent)
chain: MIHLGHILFLLLLPVAAAQTTPGERSSLPAFYPGTSGSCSGCGSLSLPLLAGLVAADAVASLLIVGAVFLCARPRRSPAQEDGKVYINMPGRG

What was measured:
[1] = variants of: B1; settings: with nkg2c_human KLRC2, P26717
[2] = variants of: B1; settings: with ki2s3_human KIR2DS3, Q14952
Chain of ki2s3_human KIR2DS3, Q14952 (Q14952 whole entry): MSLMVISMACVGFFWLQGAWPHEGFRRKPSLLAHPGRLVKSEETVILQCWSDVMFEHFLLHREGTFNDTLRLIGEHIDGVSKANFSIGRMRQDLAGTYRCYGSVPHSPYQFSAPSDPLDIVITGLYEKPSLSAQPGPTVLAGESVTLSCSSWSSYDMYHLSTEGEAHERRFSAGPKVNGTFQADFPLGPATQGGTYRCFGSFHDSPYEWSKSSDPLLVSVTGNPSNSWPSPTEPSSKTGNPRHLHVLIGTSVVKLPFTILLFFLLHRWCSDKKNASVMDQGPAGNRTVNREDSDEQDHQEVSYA

[3] = variants of: B2; settings: with nkg2d_human KLRK1, P26718
Chain of nkg2d_human KLRK1, P26718 (P26718 whole entry): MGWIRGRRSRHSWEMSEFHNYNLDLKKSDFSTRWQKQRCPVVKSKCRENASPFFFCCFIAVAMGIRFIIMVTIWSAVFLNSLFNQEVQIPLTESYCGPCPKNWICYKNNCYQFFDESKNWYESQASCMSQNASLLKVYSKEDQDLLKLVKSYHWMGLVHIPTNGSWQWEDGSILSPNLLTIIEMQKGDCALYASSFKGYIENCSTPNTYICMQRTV

Chain of nkg2c_human KLRC2, P26717 (P26717 whole entry): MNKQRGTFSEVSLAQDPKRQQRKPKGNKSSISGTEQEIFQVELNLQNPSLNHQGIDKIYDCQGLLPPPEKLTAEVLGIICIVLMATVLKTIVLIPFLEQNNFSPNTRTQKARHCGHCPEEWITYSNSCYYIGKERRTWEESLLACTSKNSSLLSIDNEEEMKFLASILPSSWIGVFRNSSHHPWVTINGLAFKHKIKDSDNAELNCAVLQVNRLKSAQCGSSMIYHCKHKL

Variant | effect of a mutation on the interaction [1] | effect of a mutation on the interaction [2] | effect of a mutation on the interaction [3]
A58F | decreasing interaction | decreasing interaction | 
T54A | decreasing interaction | decreasing interaction | 
MIHLGHILFLLLLPVAAAQTTPGERSSLPAFYPGTSGSCSGCGSLSLPLLAGLVAAAAVASLLIVGAVFLCARPRRSPAQEDGKVYINMPGRG |  |  | decreasing interaction
